{
  "source": "patent US20070202116A1",
  "about": "“Treatment of micro-organism infection” (priority 2001, published 2007)",
  "molecules": {"B1": {"name": "Aurograb: human genetic recombinant antibody (scFv with histidine tag, SEQ ID NO: 2) binding GrfA, a staphylococcal ABC transporter protein (protein)", "scFv": "MAKVQLLQSATEVKKPGASVKVSCKAYGYTFTDYGITWVRQAPGQGLEWMGWISAYNGYTNYAQKFQDRITMTTDASTSTAYMELRSLRPDDTAVLYCARDREDASLLRDGHWGQGTLVTVSSGGGGSGGGGSGGGGSGGGGSETTLTQSPGTLSLSPGERATLSCRASQIVSSSYLAWYQQKPGQAPRLLIYGASSRATGIPDRFSGSGSGTDFTLTISKLEPEDFAVYYCQHYGSSSPWTSRPRDQSDIKRAAALEHHHHHH", "modifications": "histidine tag; human single chain (scFv) recombinant antibody"}},
  "key": {"[1]": {"tested_on": "EMRSA-15", "experiment": "Data Set 1: murine sub-lethal infection, Aurograb alone", "format": "in vivo, S. aureus", "text": "The murine model of staphylococcal infection is widely used and is routinely used in the assessment of antimicrobial drugs. It is a good predictor of efficacy in infected humans since S. aureus is introduced intravenously to create a bacteraemia, from which the pathogen spreads to other organs, including the kidney, liver and spleen.\nMethod: 20 female CD-1 mice were given a sub-lethal challenge (1.3×10^7 cfu) of a methicillin-resistant, vancomycin-sensitive strain of S. aureus (EMRSA-15, Typed Hospital Isolate, Central Manchester Healthcare Trust) in 100 μl iv bolus (all iv injections given via the lateral tail vein). 1 hour later, two groups of 10 mice, received, as 100 μl iv bolus: • 1. formulation buffer (Arginine-Urea), as negative control or • 2. Aurograb (2.0 mg/kg) in formulation buffer.\nAll animals were sacrificed after a further 48 h and viable cfu per gram of organ were determined."}, "[2]": {"tested_on": "EMRSA-15", "experiment": "Data Set 2: Aurograb dose ranging study in infected mice", "format": "in vivo, S. aureus", "settings": "for Kidney log cfu per gram of tissue / Liver log cfu per gram of tissue / Spleen log cfu per gram of tissue: 48 hours; for Reduction in kidney bacterial counts: Experiment 1", "protocol": "Aims: Dose ranging study for use of Aurograb versus S. aureus strain EMRSA-15.\nDose range is determined by comparing cfu (expressed as the log of the cfu per gram of tissue) for different organs at different doses.\n[…] All mice terminated at 48 hours for culture of kidney, liver and spleen to determine organ viability counts.\nResults: expressed as log cfu per gram of tissue\nExperiment 1: S. aureus (1.5×10^7 cfu): EMRSA-15 (Table 5)\nExperiment 2: S. aureus (9×10^6 cfu): clinical isolate EMRSA-15—low dose Aurograb (Table 6)"}, "[3]": {"settings": "mice", "protocol": "The pharmacokinetic (PK) characteristics of Aurograb have been studied in mice. A murine model was used because efficacy and dose ranging studies have been performed in this species as were the repeat dose toxicology studies. Mice were given a single high dose as an iv bolus and then examined in duplicate for blood levels and organ distribution. Urine samples were also analysed. Samples were analysed for functional activity, measured by ELISA (blood samples only) and drug concentration (SDS PAGE/immunoblots)."}, "[4]": {"tested_on": "human blood", "experiment": "Blood compatibility study (haemolysis)", "settings": "human blood, 37° C., 1 hour; 0.1 mg/ml", "protocol": "This study was carried out by Biochemical Pharmacology department at Inveresk Research, Scotland, in order to assess the suitability of Aurograb for intravenous administration.\nBlood samples were taken from healthy human volunteers, transferred to tubes containing Aurograb, Aurograb vehicle, saponin or saline and incubated at 37° C. for 1 hour. After centrifugation, the amount of haemoglobin in the supernatant was then assessed to determine haemolysis."}, "[5]": {"settings": "CD-1 mice, 1.3×10^7 cfu EMRSA-15 iv, Aurograb 2 mg/kg iv 1 hour later, 48 h"}, "[6]": {"settings": "Experiment 1, 1.5×10^7 cfu EMRSA-15, Aurograb 0.2 mg/kg single iv dose"}, "[7]": {"settings": "Experiment 1, 1.5×10^7 cfu EMRSA-15, Aurograb 1 mg/kg single iv dose"}, "[8]": {"settings": "Experiment 1, 1.5×10^7 cfu EMRSA-15, Aurograb 2 mg/kg single iv dose"}, "[9]": {"settings": "Experiment 2, 9×10^6 cfu clinical isolate EMRSA-15, Aurograb 0.2 mg/kg"}, "[10]": {"settings": "Experiment 2, doses as low as 0.2 mg"}},
  "data": [
    {"molecule": "B1", "values": [
      {"measurement": "Kidney Log cfu/g tissue", "setting": "[1]; [5]", "value": "7.20 ± 1.15", "unit": "Log cfu/g tissue"},
      {"measurement": "Liver Log cfu/g tissue", "setting": "[1]; [5]", "value": "3.63 ± 0.68", "unit": "Log cfu/g tissue"},
      {"measurement": "Spleen Log cfu/g tissue", "setting": "[1]; [5]", "value": "3.79 ± 0.82", "unit": "Log cfu/g tissue"},
      {"measurement": "Reduction in viable organisms found in all three organs", "setting": "[1]; kidney, liver and spleen, Aurograb 2 mg/kg vs formulation buffer", "value": 10, "unit": "fold"},
      {"measurement": "Kidney log cfu per gram of tissue", "setting": "[2]; [6]", "value": "8.5 ± 2.55 log cfu per gram of tissue"},
      {"measurement": "Liver log cfu per gram of tissue", "setting": "[2]; [6]", "value": "6.61 ± 3.03 log cfu per gram of tissue"},
      {"measurement": "Spleen log cfu per gram of tissue", "setting": "[2]; [6]", "value": "5.69 ± 1.16 log cfu per gram of tissue"},
      {"measurement": "Kidney log cfu per gram of tissue", "setting": "[2]; [7]", "value": "8.7 ± 2.6 log cfu per gram of tissue"},
      {"measurement": "Liver log cfu per gram of tissue", "setting": "[2]; [7]", "value": "5.40 ± 1.38 log cfu per gram of tissue"},
      {"measurement": "Spleen log cfu per gram of tissue", "setting": "[2]; [7]", "value": "5.33 ± 1.21 log cfu per gram of tissue"},
      {"measurement": "Kidney log cfu per gram of tissue", "setting": "[2]; [8]", "value": "7.62 ± 1.16 log cfu per gram of tissue"},
      {"measurement": "Liver log cfu per gram of tissue", "setting": "[2]; [8]", "value": "5.22 ± 1.39 log cfu per gram of tissue"},
      {"measurement": "Spleen log cfu per gram of tissue", "setting": "[2]; [8]", "value": "5.10 ± 1.29 log cfu per gram of tissue"},
      {"measurement": "Reduction in kidney bacterial counts", "setting": "[2]; highest dose (2.0 mg/kg)", "value": 0.8, "unit": "log"},
      {"measurement": "Reduction in kidney bacterial counts", "setting": "[2]; lower doses", "value": "no reduction"},
      {"measurement": "Kidney log cfu per gram of tissue", "setting": "[2]; [9]", "value": "7.14 ± 1.28 log cfu per gram of tissue"},
      {"measurement": "Liver log cfu per gram of tissue", "setting": "[2]; [9]", "value": "3.13 ± 0.44 log cfu per gram of tissue"},
      {"measurement": "Spleen log cfu per gram of tissue", "setting": "[2]; [9]", "value": "3.40 ± 0.64 log cfu per gram of tissue"},
      {"measurement": "Bacterial killing in the liver and spleen", "setting": "[2]; [10]", "value": "evidence of bacterial killing"},
      {"measurement": "Reduction in viable staphylococci in the kidneys", "setting": "[2]; [10]", "value": "no reduction"},
      {"measurement": "Drop in liver and spleen counts", "setting": "[2]; single dose of 2.0 mg/kg in mice", "value": "approximately 2.0 log"},
      {"measurement": "Time by which all organs were cleared", "setting": "[3]; lungs, brain, liver, spleen, heart, kidney and blood", "value": "≤ 24", "unit": "h"},
      {"measurement": "Blood levels", "setting": "[3]; single intravenous bolus injection 10 mg/kg", "value": "satisfactory blood levels"},
      {"measurement": "Haemolysis classification (ASTM F756-93)", "setting": "[4]", "value": "non-haemolytic"}
    ]}
  ]
}
